# Measurements from IntAct's records for PubMed 19264842.
# B1: 1-phosphatidylinositol 4,5-bisphosphate phosphodiesterase gamma-1 (Homo sapiens), P19174 (parent)
# chain: MAGAASPCANGCGPGAPSDAEVLHLCRSLEVGTVMTLFYSKKSQRPERKTFQVKLETRQITWSRGADKIEGAIDIREIKEIRPGKTSRDFDRYQEDPAFRPDQSHCFVILYGMEFRLKTLSLQATSEDEVNMWIKGLTWLMEDTLQAPTPLQIERWLRKQFYSVDRNREDRISAKDLKNMLSQVNYRVPNMRFLRERLTDLEQRSGDITYGQFAQLYRSLMYSAQKTMDLPFLEASTLRAGERPELCRVSLPEFQQFLLDYQGELWAVDRLQVQEFMLSFLRDPLREIEEPYFFLDEFVTFLFSKENSVWNSQLDAVCPDTMNNPLSHYWISSSHNTYLTGDQFSSESSLEAYARCLRMGCRCIELDCWDGPDGMPVIYHGHTLTTKIKFSDVLHTIKEHAFVASEYPVILSIEDHCSIAQQRNMAQYFKKVLGDTLLTKPVEISADGLPSPNQLKRKILIKHKKLAEGSAYEEVPTSMMYSENDISNSIKNGILYLEDPVNHEWYPHYFVLTSSKIYYSEETSSDQGNEDEEEPKEVSSSTELHSNEKWFHGKLGAGRDGRHIAERLLTEYCIETGAPDGSFLVRESETFVGDYTLSFWRNGKVQHCRIHSRQDAGTPKFFLTDNLVFDSLYDLITHYQQVPLRCNEFEMRLSEPVPQTNAHESKEWYHASLTRAQAEHMLMRVPRDGAFLVRKRNEPNSYAISFRAEGKIKHCRVQQEGQTVMLGNSEFDSLVDLISYYEKHPLYRKMKLRYPINEEALEKIGTAEPDYGALYEGRNPGFYVEANPMPTFKCAVKALFDYKAQREDELTFIKSAIIQNVEKQEGGWWRGDYGGKKQLWFPSNYVEEMVNPVALEPEREHLDENSPLGDLLRGVLDVPACQIAIRPEGKNNRLFVFSISMASVAHWSLDVAADSQEELQDWVKKIREVAQTADARLTEGKIMERRKKIALELSELVVYCRPVPFDEEKIGTERACYRDMSSFPETKAEKYVNKAKGKKFLQYNRLQLSRIYPKGQRLDSSNYDPLPMWICGSQLVALNFQTPDKPMQMNQALFMTGRHCGYVLQPSTMRDEAFDPFDKSSLRGLEPCAISIEVLGARHLPKNGRGIVCPFVEIEVAGAEYDSTKQKTEFVVDNGLNPVWPAKPFHFQISNPEFAFLRFVVYEEDMFSDQNFLAQATFPVKGLKTGYRAVPLKNNYSEDLELASLLIKIDIFPAKENGDLSPFSGTSLRERGSDASGQLFHGRAREGSFESRYQQPFEDFRISQEHLADHFDSRERRAPRRTRVNGDNRL
# Variants of: B1
# Settings: with rac1_human RAC1, P63000
row,Variant,effect of a mutation on the interaction
1,P842L,disrupting interaction
